Test results as given in US20110064819A1, “ENCAPSULATION OF BIOLOGICALLY ACTIVE AGENTS” (priority 2008, published 2011).

Experiment: HIP extraction of dalargin into the organic phase (LC-MS and Edman sequencing)
Assay type: physicochemical
Conditions: docusate sodium in dichloromethane, peptide solution pH 3.05
Experimental: A solution of the hexapeptide dalargin was prepared by dissolving 30-60 mg of the peptide into 3 ml of CaCl2 (18.3 mM) and lowering the pH to 3.05 by addition of concentrated HCl (2M). The resulting solution (500 μl, 10-20 mg/ml, and total amount of peptide 5-10 mg) was added to a solution of the HIP agent docusate sodium in dichloromethane (1 ml, 3.058-6.116% w/v) in a 2 ml eppendorf tube. The volume of HIP solution used was twice that of the peptide solution (1 ml HIP solution for 500 μl peptide solution). The molar ratio of HIP:peptide was 10:1 with 5 mg peptide and 5:1 with 10 mg peptide. The organic and aqueous phases were mixed by vortexing at maximum speed for 1 minute. The resulting suspension was then centrifuged to separate the two phases at 20,817 rcf for 50 minutes. The organic layer (containing solubilised peptide) was collected and used to prepare nanoparticles. In order to confirm that the process had been successful at solubilising the peptide into the organic phase, the amount of peptide remaining in the aqueous phase was determined.

For “dalargin (YAGFLR; Humanised sequence of mus musculus and homo sapiens) [hexapeptide YAGFLR]”, the “Peptide extracted into the organic phase” value was “at least 99%”.
